Kd data for 16 sequences are collected here from the Immune Epitope Database (IEDB).

Assay [1] concerns the target HLA-B*57:01. Briefly: IEDB peptide-MHC binding, purified MHC/direct/fluorescence; filed as Kd, often an IC50 or EC50 that approximates it; ≥ and ≤ were set here for values at or beyond the usual limits of such assays.
The target in assay [2] is HLA-B*58:01. Briefly: IEDB peptide-MHC binding, purified MHC/competitive/fluorescence; filed as Kd, often an IC50 or EC50 that approximates it; ≥ and ≤ were set here for values at or beyond the usual limits of such assays.
Assay [3] concerns the target HLA-B*46:01. The assay is described as above.
The target in the next assay is HLA-A*30:02. Kind of assay: IEDB peptide-MHC binding, purified MHC/competitive/radioactivity; filed as Kd, often an IC50 or EC50 that approximates it; ≥ and ≤ were set here for values at or beyond the usual limits of such assays. The conditions noted are these: source organism: Dengue virus 2 Jamaica/1409/1983.
In assay [4] the target is HLA-A*01:01. The assay is described as above. Conditions: source organism: Dengue virus 2 Jamaica/1409/1983.
The target of assay [5] is HLA-A*26:01. Described as above. The conditions noted are these: source organism: Dengue virus 2 Jamaica/1409/1983.
The target of assay [6] is HLA-B*58:01. Described as above.
The target in assay [7] is HLA-A*31:01. The description is as above. Conditions: source organism: Dengue virus 3 Martinique/1243/1999.
The next assay deals with HLA-B*27:03. Kind of assay: IEDB peptide-MHC binding, purified MHC/competitive/fluorescence; filed as Kd, often an IC50 or EC50 that approximates it; ≥ and ≤ were set here for values at or beyond the usual limits of such assays.
Assay [8] has as its target HLA-A*02:12. The description is as above. The conditions noted are these: source organism: Vibrio cholerae 2740-80.
For a further assay, the target named is HLA-B*39:01. Described as above.
Assay [9] has as its target HLA-B*18:01. Described as above.
Assay [10] has as its target HLA-A*26:01. The assay is described as above.
The target of assay [11] is HLA-A*03:01. The description is as above. Conditions: source organism: Vibrio cholerae 2740-80.
In assay [12] the target is HLA-A*68:02. The description is as above. Conditions: source organism: Vibrio cholerae 2740-80.
Another assay has as its target HLA-B*51:01. The description is as above.
In assay [13] the target is HLA-A*02:19. Described as above. The conditions noted are these: source organism: Vibrio cholerae 2740-80.
Assay [14] addresses HLA-A*02:12. Briefly: IEDB peptide-MHC binding, purified MHC/direct/fluorescence; filed as Kd, often an IC50 or EC50 that approximates it; ≥ and ≤ were set here for values at or beyond the usual limits of such assays. Conditions: source organism: Choclo virus.
Another assay addresses HLA-A*02:16. The assay is described as above. Conditions: source organism: Choclo virus.
Assay [15] concerns the target HLA-A*03:01. The description is as above.
In assay [16] the target is HLA-A*68:02. The assay is described as above.
Assay [17] deals with HLA-A*02:19. The assay is described as above. Conditions: source organism: Choclo virus.
In assay [18] the target is HLA-B*15:01. Kind of assay: IEDB peptide-MHC binding, purified MHC/competitive/fluorescence; filed as Kd, often an IC50 or EC50 that approximates it; ≥ and ≤ were set here for values at or beyond the usual limits of such assays. Conditions: source organism: Orthohantavirus sinnombreense.
Assay [19] has as its target HLA-A*02:01. Described as above. The conditions noted are these: source organism: Orthohantavirus sinnombreense.
The target in a further assay is HLA-A*69:01. Described as above. The conditions noted are these: source organism: Orthohantavirus sinnombreense.
For assay [20], the target named is HLA-B*57:01. Briefly: IEDB peptide-MHC binding, purified MHC/competitive/radioactivity; filed as Kd, often an IC50 or EC50 that approximates it; ≥ and ≤ were set here for values at or beyond the usual limits of such assays.
The target of assay [21] is HLA-B*15:01. Briefly: IEDB peptide-MHC binding, purified MHC/direct/fluorescence; filed as Kd, often an IC50 or EC50 that approximates it; ≥ and ≤ were set here for values at or beyond the usual limits of such assays. The conditions noted are these: source organism: Shigella sonnei Ss046.
For assay [22], the target named is HLA-A*02:01. The assay is described as above. Conditions: source organism: Shigella sonnei Ss046.
Another assay addresses HLA-B*15:17. The description is as above. Conditions: source organism: Shigella sonnei Ss046.
Assay [23] has as its target HLA-A*31:01. The description is as above. The conditions noted are these: source organism: Shigella sonnei Ss046.
The target in another assay is HLA-B*40:01. The description is as above. The conditions noted are these: source organism: Shigella sonnei Ss046.
The target in another assay is HLA-B*48:01. Described as above. The conditions noted are these: source organism: Shigella sonnei Ss046.
In assay [24] the target is HLA-B*18:01. The assay is described as above. Conditions: source organism: Shigella sonnei Ss046.
The target of the next assay is HLA-A*11:01. Described as above. Conditions: source organism: Shigella sonnei Ss046.
The target in the next assay is HLA-B*27:05. The assay is described as above. Conditions: source organism: Shigella sonnei Ss046.
For assay [25], the target named is HLA-B*58:01. Described as above. Conditions: source organism: Shigella sonnei Ss046.
For another assay, the target named is HLA-B*07:02. The description is as above. Conditions: source organism: Shigella sonnei Ss046.
In assay [26] the target is HLA-B*46:01. The assay is described as above. Conditions: source organism: Shigella sonnei Ss046.
Assay [27] concerns the target HLA-A*01:01. Briefly: IEDB peptide-MHC binding, purified MHC/competitive/fluorescence; filed as Kd, often an IC50 or EC50 that approximates it; ≥ and ≤ were set here for values at or beyond the usual limits of such assays. Conditions: source organism: Paraglaciecola sp. T6c.
A further assay has as its target HLA-A*32:01. Kind of assay: IEDB peptide-MHC binding, purified MHC/competitive/radioactivity; filed as Kd, often an IC50 or EC50 that approximates it; ≥ and ≤ were set here for values at or beyond the usual limits of such assays.
Another assay addresses HLA-C*05:01. Briefly: IEDB peptide-MHC binding, purified MHC/direct/fluorescence; filed as Kd, often an IC50 or EC50 that approximates it; ≥ and ≤ were set here for values at or beyond the usual limits of such assays. The conditions noted are these: source organism: Homo sapiens.
Setting [28] is: source organism: Francisella tularensis subsp. tularensis FSC198.
Where [29] appears, read: source organism: Dengue virus 2 Jamaica/1409/1983.
The mark [30] stands for this setting: source organism: Dengue virus 3 Martinique/1243/1999.
Where [31] appears, read: source organism: Vibrio cholerae 2740-80.
The mark [32] stands for this setting: source organism: Orthohantavirus sinnombreense.
Where [33] appears, read: source organism: Dengue virus 1 Singapore/S275/1990.
The mark [34] stands for this setting: source organism: Shigella sonnei Ss046.
[35] abbreviates: source organism: Dengue virus 1 Brazil/97-11/1997.

As to ISTHIGFSF, the Kd in the assay with HLA-B*57:01 [1] (source organism: Francisella tularensis subsp. holarctica LVS) is 125 nM; with HLA-B*58:01 [2] (setting [28]), 1.5 nM; with HLA-B*46:01 [3] (setting [28]), no less than 20000 nM.
ITASILLWY: the Kd was 550 nM with HLA-A*30:02, 47.2 nM with HLA-A*01:01 [4], 5.66 nM with HLA-A*26:01 [5] and 2.8 nM in the assay with HLA-B*58:01 [6] (setting [29]).
Consider AASAAQRRGR, for which the Kd worked out at 165 nM with HLA-A*31:01 [7] and 18.7 nM in the assay with HLA-B*58:01 [6] (setting [30]).
KQLPPLAAW: the Kd with HLA-B*27:03 (setting [31]) is no less than 20000 nM; in the assay with HLA-A*02:12 [8] it was no less than 20000 nM; in the assay with HLA-B*39:01 (setting [31]) it was no less than 20000 nM; in the assay with HLA-B*18:01 [9] (setting [31]), 6330 nM; with HLA-A*26:01 [10] (setting [31]), no less than 20000 nM; with HLA-A*03:01 [11], no less than 20000 nM. In addition, the Kd with HLA-A*68:02 [12], with HLA-B*51:01 (setting [31]), with HLA-A*02:19 [13] and in the assay with HLA-B*46:01 [3] (setting [31]) was no less than 20000 nM in each case.
For the sequence GSFRKICGF, the Kd with HLA-A*02:12 [14], with HLA-A*02:16, in the assay with HLA-A*03:01 [15] (source organism: Choclo virus), with HLA-A*68:02 [16] (source organism: Choclo virus), with HLA-A*02:19 [17] and with HLA-B*27:03 (setting [32]) was no less than 20000 nM throughout. The Kd with HLA-B*15:01 [18], in the assay with HLA-A*02:01 [19], with HLA-A*69:01, in the assay with HLA-B*39:01 (setting [32]), with HLA-B*18:01 [9] (setting [32]) and with HLA-A*26:01 [10] (setting [32]) was no less than 20000 nM each time. Besides, the Kd is 251 nM with HLA-B*58:01 [2] (setting [32]), no less than 20000 nM with HLA-B*51:01 (setting [32]) and no less than 20000 nM with HLA-B*46:01 [3] (setting [32]).
For LSAAIGKAW, the values for the Kd with HLA-B*57:01 [20] (setting [33]) and with HLA-B*58:01 [6] (setting [33]) were 1.9 nM and 2.92 nM, respectively.
With VLDMGDPVK, the Kd with HLA-B*15:01 [21], with HLA-A*02:01 [22], with HLA-B*15:17, with HLA-A*31:01 [23], with HLA-B*40:01 and in the assay with HLA-B*57:01 [1] (setting [34]) was no less than 20000 nM throughout. The Kd in the assay with HLA-B*48:01 was no less than 20000 nM; in the assay with HLA-B*18:01 [24], no less than 20000 nM; with HLA-A*11:01 it was 7000 nM; in the assay with HLA-B*27:05 it was no less than 20000 nM; in the assay with HLA-A*03:01 [15] (setting [34]) it was 2090 nM; with HLA-B*58:01 [25], no less than 20000 nM. Further, the Kd was no less than 20000 nM in the assay with HLA-A*68:02 [16] (setting [34]), no less than 20000 nM in the assay with HLA-B*07:02, no less than 20000 nM in the assay with HLA-B*46:01 [26] and 2590 nM with HLA-A*01:01 [27].
In the case of KSLIISFAF, the Kd with HLA-B*58:01 [2] (source organism: Bacillus anthracis str. A0488) is 391 nM.
Consider ATLLVWHTW, for which the Kd in the assay with HLA-A*32:01 (setting [30]) stood at 2.68 nM; with HLA-B*57:01 [20] (setting [30]), 2.1 nM; with HLA-B*58:01 [6] (setting [30]), 1.69 nM.
In the case of NASDRMGMGV, the figures for the Kd in the assay with HLA-B*57:01 [20] (setting [30]) and with HLA-B*58:01 [6] (setting [30]) were 722 nM and 209 nM, respectively.
Turning to QSSITEAELT, the Kd with HLA-B*57:01 [20] (setting [29]) is 351 nM; in the assay with HLA-B*58:01 [6] (setting [29]), 436 nM.
Take KTVWFVPSI: the Kd stood at 6.69 nM with HLA-A*32:01 (setting [29]) and 4.32 nM with HLA-B*58:01 [6] (setting [29]).
As for KSWPLNEGI, the Kd with HLA-A*32:01 (setting [35]) is 340 nM; in the assay with HLA-B*58:01 [6] (setting [35]), 70.3 nM.
In the case of GVLIGGLEW, in the assay with HLA-B*58:01 [2] (source organism: Influenza A virus (A/parakeet/Narita/92A/98(H9N2))), the Kd stood at 552 nM.
For the sequence VSSVNMISRM, the results for the equilibrium dissociation constant (Kd) in the assay with HLA-B*57:01 [20] (setting [29]) and with HLA-B*58:01 [6] (setting [29]) were 626 nM and 698 nM, respectively.
In the assay with HLA-C*05:01, RAQDPPPEL gave a Kd of 663 nM.

As usually defined, the Kd is the equilibrium constant for the complex coming apart.
